Reference: US20250076311A1 (Chugai, published 2025)

T1: cynomolgus monkey FcγRIIa3 extracellular domain, His-tagged (cynomolgus monkey)
T1 construct: also called cyno FcgRIIa3
T1 chain: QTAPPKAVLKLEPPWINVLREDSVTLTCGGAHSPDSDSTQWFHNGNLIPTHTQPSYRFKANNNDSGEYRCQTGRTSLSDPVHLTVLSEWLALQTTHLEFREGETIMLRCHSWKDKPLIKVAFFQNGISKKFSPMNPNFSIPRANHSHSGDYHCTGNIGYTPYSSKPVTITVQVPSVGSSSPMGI

T2: cynomolgus monkey FcγRIIIaS extracellular domain, His-tagged (cynomolgus monkey, UniProt Q8SPW2 21-206 at identity 1.00))
T2 construct: also called cyno FcgRIIIaS
T2 chain: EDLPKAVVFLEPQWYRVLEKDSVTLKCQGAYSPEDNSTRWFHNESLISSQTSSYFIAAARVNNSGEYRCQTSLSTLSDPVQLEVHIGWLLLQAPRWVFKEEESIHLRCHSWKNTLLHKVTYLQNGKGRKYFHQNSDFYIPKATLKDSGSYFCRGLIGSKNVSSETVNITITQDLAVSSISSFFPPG

T3: cynomolgus monkey FcγRIIa1 extracellular domain, His-tagged (cynomolgus monkey)
T3 construct: also called cyno FcgRIIa1
T3 chain: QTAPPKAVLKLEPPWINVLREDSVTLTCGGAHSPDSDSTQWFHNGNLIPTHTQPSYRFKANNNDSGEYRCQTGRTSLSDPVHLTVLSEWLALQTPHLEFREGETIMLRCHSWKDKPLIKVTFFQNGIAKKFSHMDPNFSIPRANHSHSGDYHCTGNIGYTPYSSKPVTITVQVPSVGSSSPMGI

T4: cynomolgus monkey FcγRIIb extracellular domain, His-tagged (cynomolgus monkey)
T4 construct: also called cyno FcgRIIb
T4 chain: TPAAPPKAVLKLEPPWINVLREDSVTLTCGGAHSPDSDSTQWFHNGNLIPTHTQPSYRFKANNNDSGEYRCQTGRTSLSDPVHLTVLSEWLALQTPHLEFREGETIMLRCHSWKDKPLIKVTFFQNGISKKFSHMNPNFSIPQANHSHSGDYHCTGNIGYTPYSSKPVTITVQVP

T5: cynomolgus monkey FcγRIIa2 extracellular domain, His-tagged (cynomolgus monkey)
T5 construct: also called cyno FcgRIIa2
T5 chain: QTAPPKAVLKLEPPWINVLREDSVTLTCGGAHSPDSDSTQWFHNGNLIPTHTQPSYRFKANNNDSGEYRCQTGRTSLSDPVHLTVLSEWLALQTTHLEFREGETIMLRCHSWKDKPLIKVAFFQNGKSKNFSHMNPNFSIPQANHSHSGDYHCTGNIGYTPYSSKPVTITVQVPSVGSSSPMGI


What was measured:
Experiment in all cases: SPR (Biacore), 25C, FcgR bound per antibody captured
[1] = target: T1, cynomolgus monkey FcγRIIa3 …
Experimental: (§1) In the next step, cross-reactivity of these substitutions to cynoFcγRs was evaluated.
(§2) The value of the amount of FcγR binding was obtained by dividing the amount of FcγR bound by the amount of each antibody captured.

[2] = target: T2, cynomolgus monkey FcγRIIIaS …
Experimental: as §1, §2

[3] = target: T3, cynomolgus monkey FcγRIIa1 …
Experimental: as §1, §2

[4] = target: T4, cynomolgus monkey FcγRIIb extracellular …
Experimental: as §1, §2

[5] = target: T5, cynomolgus monkey FcγRIIa2 …
Experimental: as §1, §2

Binder | Binding to cynoFcgRs (SG1 = 100) [1] | Binding to cynoFcgRs (SG1 = 100) [2] | Binding to cynoFcgRs (SG1 = 100) [3] | Binding to cynoFcgRs (SG1 = 100) [4] | Binding to cynoFcgRs (SG1 = 100) [5]
M103205H795-SG167 / M103202L889-SK1 (antibody, human IgG1, kappa, name in EU numbering, also called P238Y) heavy: not shown light: DIVMTQSPATLSLSPGERATLSCTSSQSVYHANWLSWFQQKPGQPPKLLIYWASTLAYGVPSRFSGSGSGTDFTLTISSLQPEDAATYYCAGGYGGGRYAFGQGTKVEIKRTVAAPSVFIFPPSDEQLKSGTASVVCLLNNFYPREAKVQWKVDNALQSGNSQESVTEQDSKDSTYSLSSTLTLSKADYEKHKVYACEVTHQGLSSPVTKSFNRGEC | 38 | 14 | 18 | 22 | 14
M103205H795-SG177 / M103202L889-SK1 (antibody, human IgG1, kappa, name in EU numbering, also called N325L) heavy: not shown light: DIVMTQSPATLSLSPGERATLSCTSSQSVYHANWLSWFQQKPGQPPKLLIYWASTLAYGVPSRFSGSGSGTDFTLTISSLQPEDAATYYCAGGYGGGRYAFGQGTKVEIKRTVAAPSVFIFPPSDEQLKSGTASVVCLLNNFYPREAKVQWKVDNALQSGNSQESVTEQDSKDSTYSLSSTLTLSKADYEKHKVYACEVTHQGLSSPVTKSFNRGEC | 25 | 21 | 15 | 18 | 15
M103205H795-SG176 / M103202L889-SK1 (antibody, human IgG1, kappa, name in EU numbering, also called N325I) heavy: not shown light: DIVMTQSPATLSLSPGERATLSCTSSQSVYHANWLSWFQQKPGQPPKLLIYWASTLAYGVPSRFSGSGSGTDFTLTISSLQPEDAATYYCAGGYGGGRYAFGQGTKVEIKRTVAAPSVFIFPPSDEQLKSGTASVVCLLNNFYPREAKVQWKVDNALQSGNSQESVTEQDSKDSTYSLSSTLTLSKADYEKHKVYACEVTHQGLSSPVTKSFNRGEC | 19 | 20 | 14 | 16 | 15
M103205H795-SG173 / M103202L889-SK1 (antibody, human IgG1, kappa, name in EU numbering, also called S267L) heavy: not shown light: DIVMTQSPATLSLSPGERATLSCTSSQSVYHANWLSWFQQKPGQPPKLLIYWASTLAYGVPSRFSGSGSGTDFTLTISSLQPEDAATYYCAGGYGGGRYAFGQGTKVEIKRTVAAPSVFIFPPSDEQLKSGTASVVCLLNNFYPREAKVQWKVDNALQSGNSQESVTEQDSKDSTYSLSSTLTLSKADYEKHKVYACEVTHQGLSSPVTKSFNRGEC | 21 | 24 | 13 | 12 | 14
M103205H795-SG170 / M103202L889-SK1 (antibody, human IgG1, kappa, name in EU numbering, also called P238Q) heavy: not shown light: DIVMTQSPATLSLSPGERATLSCTSSQSVYHANWLSWFQQKPGQPPKLLIYWASTLAYGVPSRFSGSGSGTDFTLTISSLQPEDAATYYCAGGYGGGRYAFGQGTKVEIKRTVAAPSVFIFPPSDEQLKSGTASVVCLLNNFYPREAKVQWKVDNALQSGNSQESVTEQDSKDSTYSLSSTLTLSKADYEKHKVYACEVTHQGLSSPVTKSFNRGEC | 21 | 12 | 16 | 18 | 15
M103205H795-SG172 / M103202L889-SK1 (antibody, human IgG1, kappa, name in EU numbering, also called V266F) heavy: not shown light: DIVMTQSPATLSLSPGERATLSCTSSQSVYHANWLSWFQQKPGQPPKLLIYWASTLAYGVPSRFSGSGSGTDFTLTISSLQPEDAATYYCAGGYGGGRYAFGQGTKVEIKRTVAAPSVFIFPPSDEQLKSGTASVVCLLNNFYPREAKVQWKVDNALQSGNSQESVTEQDSKDSTYSLSSTLTLSKADYEKHKVYACEVTHQGLSSPVTKSFNRGEC | 27 | 31 | 14 | 16 | 17
M103205H795-SG168 / M103202L889-SK1 (antibody, human IgG1, kappa, name in EU numbering, also called P238E) heavy: not shown light: DIVMTQSPATLSLSPGERATLSCTSSQSVYHANWLSWFQQKPGQPPKLLIYWASTLAYGVPSRFSGSGSGTDFTLTISSLQPEDAATYYCAGGYGGGRYAFGQGTKVEIKRTVAAPSVFIFPPSDEQLKSGTASVVCLLNNFYPREAKVQWKVDNALQSGNSQESVTEQDSKDSTYSLSSTLTLSKADYEKHKVYACEVTHQGLSSPVTKSFNRGEC | 30 | 13 | 21 | 28 | 16
M103205H795-SG169 / M103202L889-SK1 (antibody, human IgG1, kappa, name in EU numbering, also called P238M) heavy: not shown light: DIVMTQSPATLSLSPGERATLSCTSSQSVYHANWLSWFQQKPGQPPKLLIYWASTLAYGVPSRFSGSGSGTDFTLTISSLQPEDAATYYCAGGYGGGRYAFGQGTKVEIKRTVAAPSVFIFPPSDEQLKSGTASVVCLLNNFYPREAKVQWKVDNALQSGNSQESVTEQDSKDSTYSLSSTLTLSKADYEKHKVYACEVTHQGLSSPVTKSFNRGEC | 32 | 22 | 17 | 22 | 16
M103205H795-SG174 / M103202L889-SK1 (antibody, human IgG1, kappa, name in EU numbering, also called S267H) heavy: not shown light: DIVMTQSPATLSLSPGERATLSCTSSQSVYHANWLSWFQQKPGQPPKLLIYWASTLAYGVPSRFSGSGSGTDFTLTISSLQPEDAATYYCAGGYGGGRYAFGQGTKVEIKRTVAAPSVFIFPPSDEQLKSGTASVVCLLNNFYPREAKVQWKVDNALQSGNSQESVTEQDSKDSTYSLSSTLTLSKADYEKHKVYACEVTHQGLSSPVTKSFNRGEC | 20 | 15 | 13 | 11 | 16
M103205H795-SG178 / M103202L889-SK1 (antibody, human IgG1, kappa, name in EU numbering, also called N325E) heavy: not shown light: DIVMTQSPATLSLSPGERATLSCTSSQSVYHANWLSWFQQKPGQPPKLLIYWASTLAYGVPSRFSGSGSGTDFTLTISSLQPEDAATYYCAGGYGGGRYAFGQGTKVEIKRTVAAPSVFIFPPSDEQLKSGTASVVCLLNNFYPREAKVQWKVDNALQSGNSQESVTEQDSKDSTYSLSSTLTLSKADYEKHKVYACEVTHQGLSSPVTKSFNRGEC | 29 | 36 | 22 | 26 | 21
M103205H795-SG179 / M103202L889-SK1 (antibody, human IgG1, kappa, name in EU numbering, also called A327I) heavy: not shown light: DIVMTQSPATLSLSPGERATLSCTSSQSVYHANWLSWFQQKPGQPPKLLIYWASTLAYGVPSRFSGSGSGTDFTLTISSLQPEDAATYYCAGGYGGGRYAFGQGTKVEIKRTVAAPSVFIFPPSDEQLKSGTASVVCLLNNFYPREAKVQWKVDNALQSGNSQESVTEQDSKDSTYSLSSTLTLSKADYEKHKVYACEVTHQGLSSPVTKSFNRGEC | 28 | 48 | 19 | 19 | 17
